One data set addresses T1, GST-TMEM97 (108-176) (Homo sapiens, UniProt Q5BJF2).
T1 construct: GST-TMEM97 (108-176, recombinant GST-C terminal from wheat germ); purchased Abnova (Taipei City, Taiwan); host or cells: wheat germ (cell-free)
Nature of the data set: Surface plasmon resonance, immobilized GST-TMEM97 (108-176). It counts as binding. Particulars: SPR. As to the method:
(§1) Surface Plasmon Resonance (SPR). Recombinant full-length TMEM97 (also called MAC30, from HEK293 cells) and GST-TMEM97 (108-176, recombinant GST-C terminal from wheat germ) proteins were purchased from OriGene (Rockville, Md.) and Abnova (Taipei City, Taiwan), respectively. Three peptides, TMEM97 (108-176), TMEM97 (108-143) and TMEM97 (144-176), were synthesized. All proteins and peptides were initially prepared in HBS buffer containing 10 mM HEPES, pH 7.4, 150 mM NaCl, and 0.05% surfactant P20. The CM5 sensor surface was first activated by 1-ethyl-3-(3-dimethylaminopropyl) carbodiimide hydrochloride (EDC)/N-hydroxy succinimide (NHS) mixture using a Biacore T200 or Biacore 8K instrument (GE Healthcare). […] Flow channels 1 and 3 were used as references.
(§2) The three synthesized peptides were diluted to 50 μg/mL in 10 mM sodium acetate at pH 4.0 and immobilized to flow channels 2, 3 and 4, respectively, on another sensor chip. The unmodified surfaces on a flow channel 1 were used as a reference control. Histatin solutions with a series of increasing concentrations (0.78-25 μM at 2-fold dilution) were applied to all four channels at a 30 μL/minute flow rate at 25° C. The data were double-referenced with reference channel and zero concentration responses, and reference subtracted sensorgrams were fitted with 1 to 1 Langmuir kinetic model using a Biacore T200 evaluation software V3.0 or Insight evaluation software. The equilibrium dissociation constants ([…]) were determined from two rate constants (KD=kd/ka).
(§3) To determine the region(s) of Hst1 that mediate binding to TMEM97, SPR testing was performed with various Hst1 fragments and either recombinant TMEM97 (GST-tagged, wheat-germ derived, C-terminal fragment TMEM97 (108-176)) or synthesized TMEM97 (TMEM97 (108-176), TMEM97 (108-143) and TMEM97 (144-176)).

In data set [1] the target is T2, Synthetic TMEM97 (144-176) (Homo sapiens, UniProt Q5BJF2).
T2 construct: made in house; host or cells: chemical solid-phase synthesis (Fmoc, Wang resin)
Nature of the data set: Surface plasmon resonance, immobilized synthetic TMEM97 (144-176). It counts as binding. Particulars: SPR. The protocol: as §1, §2
(§4) To determine more precisely which segment of TMEM97 is necessary for binding of Hst1, multiple synthetic fragments of TMEM97 were generated (Table 6) and binding to Hst1 was tested using SPR. […] Smaller fragments of the C-terminal of TMEM97 were then constructed to represent the (predicted) luminal (108-143) and cytoplasmic (144-176) exposed segments of the C-terminus of TMEM97 based on modeling experiments previously described. […] SPR results for Hst1 were confirmed using ITC as an orthogonal analytical method.
as §3

The target of data set [2] is T3, Synthetic TMEM97 (108-176) (Homo sapiens, UniProt Q5BJF2).
T3 construct: Three peptides, TMEM97 (108-176), TMEM97 (108-143) and TMEM97 (144-176), were synthesized; made in house; host or cells: chemical solid-phase synthesis (Fmoc, Wang resin)
Nature of the data set: Surface plasmon resonance, immobilized synthetic TMEM97 (108-176). The conditions noted are these: SPR. It counts as binding. As to the method:
as §1, §2, §4, §3

The target in data set [3] is T4, Synthetic TMEM97 (108-143) (Homo sapiens, UniProt Q5BJF2).
T4 construct: made in house; host or cells: chemical solid-phase synthesis (Fmoc, Wang resin)
Nature of the data set: Surface plasmon resonance, immobilized synthetic TMEM97 (108-143). Particulars: SPR. Type of data set: binding. As to the method: as §1, §2, §4, §3

For data set [4], the target named is T5, full-length recombinant TMEM97 (HEK293 cells) (Homo sapiens, UniProt Q5BJF2).
T5 construct: Recombinant full-length TMEM97 (also called MAC30, from HEK293 cells); purchased OriGene (Rockville, Md.); host or cells: HEK293 cells
T5 sequence (Q5BJF2 whole entry): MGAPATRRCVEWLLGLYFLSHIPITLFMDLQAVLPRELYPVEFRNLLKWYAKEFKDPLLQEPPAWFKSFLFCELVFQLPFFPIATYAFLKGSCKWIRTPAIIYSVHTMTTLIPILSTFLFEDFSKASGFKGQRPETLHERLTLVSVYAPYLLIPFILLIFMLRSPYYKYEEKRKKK
Nature of the data set: Surface plasmon resonance, immobilized full-length TMEM97. Type of data set: binding. Particulars: SPR.
Protocol: The three synthesized peptides were diluted to 50 μg/mL in 10 mM sodium acetate at pH 4.0 and immobilized to flow channels 2, 3 and 4, respectively, on another sensor chip. The unmodified surfaces on a flow channel 1 were used as a reference control. […] The data were double-referenced with reference channel and zero concentration responses, and reference subtracted sensorgrams were fitted with 1 to 1 Langmuir kinetic model using a Biacore T200 evaluation software V3.0 or Insight evaluation software. The equilibrium dissociation constants (K&) were determined from two rate constants (KD=kd/ka).

The next data set deals with HCE cells. Nature of the data set: Immunofluorescence imaging of internalization and localization. It counts as cell-based, human. Particulars: 24 hours after exposure. The protocol: Immunofluorescence Imaging. HCE cells were seeded on glass coverslips (Fisher Scientific Co.; Pittsburgh, Pa.) within a 6-well plate at 3×10^5 (cells/well) seeding density. […] HCE cells were then fixed in 3.7% paraformaldehyde, permeabilized with phosphate-buffered saline (PBS) containing 0.2% TRITON™ X-100 for 5 minutes, and washed three times for 5 minutes each time in PBS. For blocking, cells were and incubated at room temperature for 30 minutes with 5% bovine serum albumin (BSA) and 5% normal goat serum in PBS. For the Endoplasmic Reticulum (ER) staining, a Cytopainter ER staining kit (Abcam; Cambridge, Mass.) was used, following the manufacturer's instructions. After washing with 1×Assay buffer, cells were incubated with Green Detection Reagent to cover the monolayer of cells. For the detection of Hst1 and TMEM97, mouse anti-Hst1 antibody (Abcam; Cambridge, Mass.), rabbit primary antibody against Hst1 (Mybiosource; San Diego, Calif.), and rabbit anti-TMEM97 antibody (Novus Bio.; Littleton, Colo.) were used. Cells were incubated overnight at 4° C. with primary antibodies, washed three times for 5 minutes each time in PBS before incubation with secondary antibodies for 30 minutes. Cells were then counterstained with 1 μg/mL 4′,6-diamidino-2-phenylindole (DAPI) solution in PBS for 3 minutes, then washed three times with PBS containing 0.05% TRITON™ X-100 for 5 minutes each time, twice with PBS for 5 minutes each time, and once with distilled water for 10 seconds. The cells were mounted in Fluoro gel with Tris buffer (Electron Microscopy Sciences; Hatfield, Pa.) and observed under a confocal microscope (Zeiss LSM 710 Confocal Microscope; Oberkochen, Germany) using a 40×objective. Fluorescent dye sold under the tradename ALEXA FLUOR® 488 NHS Ester (Molecular Probes; Carlsbad, Calif.) was used for making Alexa-488 coupled synthetic Hst1.
Transfection/Knock-Down of TMEM97. Sub-confluent monolayers of HCE cells in grown in 35-mm six-well plates were transfected with reaction mixtures composed of 100 pmol of small interfering RNA (siRNA) to TMEM97 (Santa Cruz Biotechnology; Dallas, Tex.) for 48 hours and 5 μL of transfection reagent sold under the tradename LIPOFECTAMINE® 2000 (Invitrogen; Carlsbad, Calif.) in culture medium sold under the tradename OPTI-MEMO media (Gibco Life Technologies; Grand Island, N.Y.). Complexes were incubated for 20 minutes at 24° C. and then added to cells at 37° C. Incubation was continued for 24 to 48 hours at 37° C. in 5% CO2. Knock-down (KD) of TMEM97 was confirmed by western blot analysis using a rabbit anti-TMEM97 antibody (Novus Bio.; Littleton, Colo.). […]

Data set [5] in a line: Circular dichroism secondary structure analysis (DichroWeb). It counts as physicochemical. The protocol:
Circular Dichroism (CD). CD analysis was performed on a Jasco 815 CD spectrometer at room temperature. TMEM97 (108-176) and Hst1 full-length peptides were prepared as 10 mM stock in 25% DMSO and water, respectively, and diluted to 0.15 mg/mL final concentration in 10 mM […] buffer. A total of 400 μL of each sample was added into a 1 mm quartz sample cell, and CD spectra were recorded from 260 nm to 190 nm wavelength. Data points were measure in 0.5 nm wavelength step at a scanning speed of 100 nm/minute. A total of five spectra were acquired for each sample and averaged. […] buffer without peptide was used as a control curve, which was subsequently subtracted from the CD spectra of peptide samples. The resulting buffer control subtracted CD intensity row data in millidegrees were submitted to DichroWeb and fitted with multiple embedded models and converted to mean residue ellipticity.
Subsequently, the hypothesis that interaction between Hst1 and TMEM97 could affect the structure of each protein was tested. Also, the secondary structure of Hst1 and TMEM97 was tested in solution using CD measurements. It was noted that Hst1 alone is mostly disordered (over 50%) with some degree of β-strand, while TMEM97 (108-176) contains some α-helical and β-strand regions with ˜34% disordered regions. According to CD spectra comparison, there seemed to be more secondary structures formed upon Hst1 binding to TMEM97 (108-176).

Data set [6] deals with T6, Synthetic TMEM97 (108-176) peptide.
T6 construct: Synthetic peptide; also called full C-terminal synthetic TMEM97
T6 peptide: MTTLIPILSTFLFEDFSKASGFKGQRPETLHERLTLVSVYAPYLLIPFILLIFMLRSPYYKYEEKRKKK
Nature of the data set: SPR.

For data set [7], the target named is T7, Synthetic TMEM97 (144-176) peptide.
T7 construct: Synthetic peptide; also called (predicted) cytoplasmic segment
T7 peptide: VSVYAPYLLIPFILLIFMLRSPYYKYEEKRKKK
Nature of the data set: SPR.

Setting [8] is: CD, fraction of secondary structure.

Square brackets hold non-standard residues; d marks the D form. Ends that are not written are not given here. Peptide text beside a SMILES is read from it. pS = N[C@@H](COP(=O)(O)O)C(=O)O

Turning to `N=C(N)NCCC[C@H](NC(=O)[C@H](Cc1ccc(O)cc1)NC(=O)CNC(=O)[C@H](Cc1c[nH]cn1)NC(=O)[C@H](Cc1c[nH]cn1)NC(=O)[C@H](CCCNC(=N)N)NC(=O)[C@H](CCCCN)NC(=O)[C@H](CCC(=O)O)NC(=O)[C@H](Cc1c[nH]cn1)NC(=O)[C@H](COP(=O)(O)O)NC(=O)[C@@H](N)CC(=O)O)C(=O)N[C@@H](CCCNC(=N)N)C(=O)N[C@@H](CCCCN)C(=O)N[C@@H](Cc1ccccc1)C(=O)N[C@@H](Cc1c[nH]cn1)C(=O)N[C@@H](CCC(=O)O)C(=O)N[C@@H](CCCCN)C(=O)N[C@@H](Cc1c[nH]cn1)C(=O)N[C@@H](Cc1c[nH]cn1)C(=O)N[C@@H](CO)C(=O)N[C@@H](Cc1c[nH]cn1)C(=O)N[C@@H](CCCNC(=N)N)C(=O)N[C@@H](CCC(=O)O)C(=O)N[C@@H](Cc1ccccc1)C(=O)N1CCC[C@H]1C(=O)N[C@@H](Cc1ccccc1)C(=O)O` [Hst1(1-26)] (H-D[pS]HEKRHHGYRRKFHEKHHSHREFPF-OH), the “% Rmax” value is “(% Rmax = 24%)” at GST-TMEM97 (108-176), “(% Rmax = 4%)” in data set [1] and “(% Rmax = 8%)” in [2]. In [3], the KD / binding result is reported as “No binding”.

Turning to “Hst1(1-14): Hst1 fragment, residues 1-14 (DSHEKRHHGYRRKF)”, the KD entry in [1] and in data set [2] was “No binding” in each case. The KD / binding entry in data set [3] is listed as “No binding”.

“HYHKFHRYYDPGSNLYKEHNHGFHHGYKDEFRREpSRDS (HYHKFHRYYDPGSNLYKEHNHGFHHGYKDEFRRE[pS]RDS) [reference compound]”: the “% Rmax” value turned out to be 8% in data set [4] and 5% with GST-TMEM97 (108-176). Also, the KD result in [4] (25° C., 1 to 1 Langmuir kinetic model) is reported as “No binding”; with GST-TMEM97 (108-176), “No binding”.

With `N=C(N)NCCC[C@H](NC(=O)[C@H](Cc1ccc(O)cc1)NC(=O)CNC(=O)[C@H](Cc1c[nH]cn1)NC(=O)[C@H](Cc1c[nH]cn1)NC(=O)[C@H](CCCNC(=N)N)NC(=O)[C@H](CCCCN)NC(=O)[C@H](CCC(=O)O)NC(=O)[C@H](Cc1c[nH]cn1)NC(=O)[C@H](COP(=O)(O)O)NC(=O)[C@@H](N)CC(=O)O)C(=O)N[C@@H](CCCNC(=N)N)C(=O)N[C@@H](CCCCN)C(=O)N[C@@H](Cc1ccccc1)C(=O)N[C@@H](Cc1c[nH]cn1)C(=O)N[C@@H](CCC(=O)O)C(=O)N[C@@H](CCCCN)C(=O)N[C@@H](Cc1c[nH]cn1)C(=O)N[C@@H](Cc1c[nH]cn1)C(=O)O` [Hst1(1-19)] (H-D[pS]HEKRHHGYRRKFHEKHH-OH), the “% Rmax” value on GST-TMEM97 (108-176) is given as “(% Rmax = 32%)”; in data set [1] it was “(% Rmax = 16%)”; in data set [2], “(% Rmax = 19%)”.

Turning to “Hst1(20-32): Hst1 fragment, residues 20-32 (SHREFPFYGDYGS)”, the KD entry in data set [1] is “No binding”.

Consider “fluorescent dye-coupled synthetic Hst1: synthetic Hst1 coupled with ALEXA FLUOR 488 NHS Ester (D[pS]HEKRHHGYRRKFHEKHHSHREFPFYGDYGSNYLYDN; also: coupled with Alexa Fluor 488 NHS ester, site not given here; UniProt P15515 20-57, looked up)”, for which the internalization into cells result in the data set with HCE cells is on record as “internalized into HCE cells”.

As to “Hst1(15-38): Hst1 fragment, residues 15-38 (HEKHHSHREFPFYGDYGSNYLYDN)”, the KD result (in the data set with GST-TMEM97 (108-176); in data set [1]; in data set [2]) was “No binding” each time.

B1: MTTLIPILSTFLFEDFSKASGFKGQRPETLHERLTLVSVYAPYLLIPFILLIFMLRSPYYKYEEKRKKK (peptide)
chain: MTTLIPILSTFLFEDFSKASGFKGQRPETLHERLTLVSVYAPYLLIPFILLIFMLRSPYYKYEEKRKKK
B1 came in with a disordered regions in data set [5] (CD in solution) of approximately 34%. In [5] (setting [8]), this molecule registered a Helix of 0.14, a Strand of 0.31, a Turns of 0.21 and an Unordered of 0.34.

B2: Hst1(15-38) (peptide)
peptide: HEKHHSHREFPFYGDYGSNYLYDN
notes: Fragment of Hst1
As for B2, the binding result in [6] and in data set [7] was “no binding” in each case.

B3: Hst1(20-32) (peptide)
peptide: SHREFPFYGDYGS
notes: Fragment of Hst1
For B3, the binding result in data set [7] was “no binding”.

Values taken from patent US20230190870A1, “Method for Treating Lysosomal Storage Diseases with Histatin Peptides” (THE BOARD OF TRUSTEES OF THE UNIVERSITY OF ILLINOIS, priority 2020, published 2023).
